# From publication PMC7449243, “An optimized integrin α6‐targeted peptide for positron emission tomography/magnetic resonance imaging of pancreatic cancer and its precancerous lesion” (Clinical and Translational Medicine, 2020)
# Positions of bridges follow the written chain, without caps; N, C: chain ends. Residues, ends and D or L forms follow the SMILES beside them. *: point of attachment. NOTA = O=C(O)CN1CCN(CC(=O)O)CCN(CC(=O)*)CC1; PEG4 = NCCOCCOCCOCCOCCC(=O)O
# Experiments:
# Sw1990 tumors = experiment: In vivo blocking assay of Cy5‐RWY by unlabeled peptides; conditions: i.v. 6 nmol Cy5‐RWY together with 6 μmol unlabeled peptide; mice bearing Sw1990 tumors
# Protocol: FIGURE 1 Increased and poorer prognosis of integrin α6 in PDAC and the optimization of a peptide targeting integrin α6. […] D, The binding affinities of seven Ala‐mutated peptides were analyzed by ELISA. E, The in vivo blocking assays were performed via intravenous injection of 6 nmol of Cy5‐RWY together with 6 μmol of the unlabeled RWY peptide, or its scrambled peptide or a set of its alanine‐scanning mutant peptides into mice bearing Sw1990 tumors. […] F and G, Sw1990 cells were incubated with Cy5‐RWY and Cy5‐S5 at 37°C for 30 min, and the integrin α6‐binding affinities of Cy5‐RWY and Cy5‐S5 were analyzed by flow cytometric analysis (F); the fluorescence intensity of the S5 group presented as relative (1.41 ± 0.03) fold over RWY, indicating a higher tumor cell‐binding ability of S5. H and I To further investigate the in vivo tumor‐binding ability of the S5 peptide, Cy5‐S5, Cy5‐RWY, and Cy5‐CG7C (negative control) were synthesized and used in NIRF.
# integrin α6 = molecular target: T1, integrin α6 (Homo sapiens, UniProt P23229); experiment: Binding of Ala-mutated peptides by ELISA (alanine scanning of RWY); conditions: relative to RWY peptide; Figure 1D,E (ELISA and in vivo blocking)
# T1 sequence (P23229 24-1130): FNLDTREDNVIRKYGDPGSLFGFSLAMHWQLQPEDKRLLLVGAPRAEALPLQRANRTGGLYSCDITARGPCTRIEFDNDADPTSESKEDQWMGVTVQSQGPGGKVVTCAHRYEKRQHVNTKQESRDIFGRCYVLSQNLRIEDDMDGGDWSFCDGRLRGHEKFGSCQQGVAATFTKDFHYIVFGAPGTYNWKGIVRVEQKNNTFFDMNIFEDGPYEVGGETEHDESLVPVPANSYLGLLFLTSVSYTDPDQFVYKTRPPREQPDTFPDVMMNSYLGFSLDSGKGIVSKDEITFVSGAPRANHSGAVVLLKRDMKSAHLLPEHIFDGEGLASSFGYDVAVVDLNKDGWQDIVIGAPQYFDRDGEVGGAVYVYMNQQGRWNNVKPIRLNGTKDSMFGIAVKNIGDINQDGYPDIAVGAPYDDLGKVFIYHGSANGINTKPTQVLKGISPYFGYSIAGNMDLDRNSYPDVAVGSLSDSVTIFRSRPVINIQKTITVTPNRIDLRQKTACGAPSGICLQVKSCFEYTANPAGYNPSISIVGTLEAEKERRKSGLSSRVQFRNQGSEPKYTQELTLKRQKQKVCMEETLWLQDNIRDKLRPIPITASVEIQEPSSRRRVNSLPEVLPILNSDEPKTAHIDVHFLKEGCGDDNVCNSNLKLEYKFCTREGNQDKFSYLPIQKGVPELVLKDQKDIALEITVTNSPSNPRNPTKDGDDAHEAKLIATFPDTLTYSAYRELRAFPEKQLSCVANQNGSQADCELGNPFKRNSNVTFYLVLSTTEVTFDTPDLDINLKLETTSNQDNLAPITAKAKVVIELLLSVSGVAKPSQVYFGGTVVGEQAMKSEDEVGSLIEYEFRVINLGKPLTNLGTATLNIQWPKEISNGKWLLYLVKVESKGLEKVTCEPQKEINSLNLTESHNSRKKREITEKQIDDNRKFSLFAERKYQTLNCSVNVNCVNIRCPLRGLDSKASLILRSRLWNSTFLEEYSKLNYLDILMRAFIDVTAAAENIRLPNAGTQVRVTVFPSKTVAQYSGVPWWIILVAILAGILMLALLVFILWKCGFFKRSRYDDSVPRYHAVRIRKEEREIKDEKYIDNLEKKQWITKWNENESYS
# Text: We selected integrin α6 as the target of PDAC as it was overexpressed in pancreatic cancer cells ^4 , ^5 and cancerous tissue of patients with PDAC ^4 , ^6 , ^7 with an overexpression rate up to 92%. ^4 Increased integrin α6 levels were associated with stronger PDAC cell invasiveness ^5 and poorer prognosis for patients. ^6 , ^7 Furthermore, the integrin α6β4 dimer was overexpressed in PanIN even at a stage as early as PanIN 1A. ^4 Here, we confirmed that integrin α6 was overexpressed in human PDAC (Figure 1A,B) and increased integrin α6 had poorer prognosis for PDAC patients (Figure 1C). Recently, a peptide CRWYDENAC (dubbed RWY) targeting integrin α6 has been identified ^8 and employed for nanotherapeutics of nasopharyngeal carcinoma ^8 and for PET imaging of hepatocellular carcinoma by our team. ^9 Here, we used the Ala scanning mutagenesis to modify the RWY peptide. R, W, and Y were the three key amino acids within the RWY peptide, since their replacement by an alanine reduced the cellular binding ability of this peptide, both in vitro and in vivo. […]
# FIGURE 1 Increased and poorer prognosis of integrin α6 in PDAC and the optimization of a peptide targeting integrin α6. […] D, The binding affinities of seven Ala‐mutated peptides were analyzed by ELISA. […]
# [1] = in vivo
# Protocol: (§1) Approximately 3.7 × 10^6 Bq (100 μCi) of ^18F‐S5 was intravenously injected to a mouse for PET imaging, and 2.5 mmol/kg of gadolinium‐diethylenetriamine pentaacetic acid was injected for enhanced MR imaging. After 120 min postinjection of ^18F‐S5, PET/MR imaging was obtained by using a hybrid 3.0T PET/MR scanner (uPMR 790; UIH, Shanghai, China).
# PanIN = experiment: in vivo; type: in vivo, mouse; conditions: KC mouse, PET 120 min postinjection; mean ± SD
# Protocol: as §1
# (§2) However, in the PET/MR imaging, ^18F‐S5 produced high PET signals in the possible location of the tumor (Figure 2A). The uptake of ^18F‐S5 in tumor was quantified as 4.34 ± 1.16 %ID/g (a percentage of the injected dose per gram) (n = 5) and the tumor‐to‐muscle ratio was 4.32 ± 0.65 (Figure 2B). […] The overexpression of integrin α6 in the spontaneously developed PDAC tissue was confirmed using immunohistochemistry (Figure 2D). In addition, ^18F‐S5‐PET/MR imaging could also detect metastatic tumors in KPC, where ^18F‐S5 produced high PET signals in both of the PDAC lesions and the metastatic tumors in the abdominal cavity (Figure S4A‐D). […] Immunohistochemical analysis confirmed the formation of PanIN lesions in the pancreas and increased integrin α6 expression in lesion tissues (Figure 2H).
# (§3) FIGURE 2 ^18F‐S5 PET/MR imaging in PDAC and PanIN mouse models. A, Representative cross‐sectional images of PET/MR imaging with ^18F‐S5 of KPC mouse (left) and the 3D image (right). B, Quantification of ^18F‐S5 uptake (%ID/g) by KPC mouse in tumor (4.34 ± 1.16), muscle (1.00 ± 0.17), liver (1.24 ± 0.33), and heart (2.38 ± 0.45), respectively. […] D, The development of PDAC in KPC mouse was confirmed by HE staining (left), and increased integrin α6 expression was confirmed by immunohistochemistry (right). E, Representative cross‐sectional images of PET/MR imaging of KC mouse (left) and the MIP reconstructed image (right). F, Quantification of ^18F‐S5 uptake (%ID/g) by KC mouse in PanIN tissue (2.99 ± 0.52), muscle (0.89 ± 0.13), liver (1.31 ± 0.22), and heart (2.43 ± 0.35), respectively. […] H, The development of PanIN in mice was confirmed by HE staining (left), and the overexpression of integrin α6 in the lesion was analyzed using immunohistochemistry (right) (red arrow: PanIN; black arrow: relatively normal pancreatic tissue) (mean ± SD, the difference was evaluated by Student's t‐test, *P < .05, **P < .01, ***P < .001)
# [2] = tested on: spontaneously developed PDAC; experiment: in vivo; type: in vivo, mouse; conditions: KPC mouse, PET 120 min postinjection; n = 5, mean ± SD
# Protocol: as §1, §2, §3
# in vivo = type: in vivo, mouse; conditions: mouse, in vivo, iv
# Protocol: as §1, §2, §3
enhanced tumor binding ability (integrin α6),Molecule,blocking effect on Cy5‐RWY (Sw1990 tumors),uptake in tumor tissues compared with other tissues and organs [1],uptake in PanIN tissue (PanIN) [%ID/g],uptake in tumor [2] [%ID/g],"tissue uptake at 2 h (in vivo; KC (LSL-Kras^G12D/+; Pdx1-Cre), uptake in heart) [%ID/g]","tissue uptake at 2 h (in vivo; KC (LSL-Kras^G12D/+; Pdx1-Cre), uptake in liver) [%ID/g]","tissue uptake at 2 h (in vivo; KC (LSL-Kras^G12D/+; Pdx1-Cre), uptake in muscle) [%ID/g]","tissue uptake at 2 h (in vivo; KPC (LSL-Kras^G12D/+; Pdx1-Cre; Trp53^fl/fl), uptake in heart) [%ID/g]","tissue uptake at 2 h (in vivo; KPC (LSL-Kras^G12D/+; Pdx1-Cre; Trp53^fl/fl), uptake in liver) [%ID/g]","tissue uptake at 2 h (in vivo; KPC (LSL-Kras^G12D/+; Pdx1-Cre; Trp53^fl/fl), uptake in muscle) [%ID/g]"
approximately 1.5 fold,"CRWYDANAC [S5, peptide …, alanine substitution of E in RWY]",highest blocking effect,–,–,–,–,–,–,–,–,–
–,C[C@@H]1NC(=O)[C@H](CC(N)=O)NC(=O)[C@H](C)NC(=O)[C@H](CC(=O)O)NC(=O)[C@H](Cc2ccc(O)cc2)NC(=O)[C@H](Cc2c[nH]c3ccccc23)NC(=O)[C@H](CCCNC(=N)N)NC(=O)[C@@H](NC(=O)CCOCCOCCOCCOCCNC(=O)CN2CCN(CC(=O)O)CCN(CC(=O)O)CC2)CSSC[C@@H](C(=O)O)NC1=O [^18F‐S5] ({NOTA-PEG4}-CRWYDANAC-OH; disulfide 1-9 (inferred); N-terminus and C-terminus assumed),–,the highest among all collected tissues and organs except for the kidney,2.99 ± 0.52,4.34 ± 1.16,2.43 ± 0.35,1.31 ± 0.22,0.89 ± 0.13,2.38 ± 0.45,1.24 ± 0.33,1 ± 0.17
